In PMC3458569 (Nucleic Acids Research, 2012):

Tests used:
Bacillus subtilis UvrA = Bacillus subtilis UvrA (Bacillus subtilis, UniProt O34863 1-957); test: native gel or EMSA
crystal structure = target: the molecule itself; test: crystal structure
cross-linking = target: the molecule itself; test: cross-linking
DEER = target: the molecule itself; test: DEER
UvrB wild type = target: T1, UvrB wild type (Bacillus subtilis, UniProt P37954 1-661); test: X-ray crystallography
T1 sequence: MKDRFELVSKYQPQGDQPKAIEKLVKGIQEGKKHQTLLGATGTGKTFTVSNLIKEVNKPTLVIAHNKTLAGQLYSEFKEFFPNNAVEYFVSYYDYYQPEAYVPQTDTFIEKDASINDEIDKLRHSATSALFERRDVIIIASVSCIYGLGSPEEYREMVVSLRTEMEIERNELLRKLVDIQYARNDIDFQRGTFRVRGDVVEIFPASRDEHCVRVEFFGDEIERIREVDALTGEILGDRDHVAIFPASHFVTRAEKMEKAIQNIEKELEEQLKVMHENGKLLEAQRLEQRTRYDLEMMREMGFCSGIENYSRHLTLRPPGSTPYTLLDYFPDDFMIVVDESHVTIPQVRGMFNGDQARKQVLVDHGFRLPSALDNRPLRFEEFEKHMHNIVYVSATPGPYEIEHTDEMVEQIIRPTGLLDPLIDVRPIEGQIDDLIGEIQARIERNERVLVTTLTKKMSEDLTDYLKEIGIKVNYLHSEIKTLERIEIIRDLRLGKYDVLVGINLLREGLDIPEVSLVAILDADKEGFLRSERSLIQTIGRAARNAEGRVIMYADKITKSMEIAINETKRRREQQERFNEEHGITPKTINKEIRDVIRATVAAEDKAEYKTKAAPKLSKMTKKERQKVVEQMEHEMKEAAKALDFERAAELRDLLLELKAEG

Sequence of Bacillus subtilis UvrA (O34863 whole entry): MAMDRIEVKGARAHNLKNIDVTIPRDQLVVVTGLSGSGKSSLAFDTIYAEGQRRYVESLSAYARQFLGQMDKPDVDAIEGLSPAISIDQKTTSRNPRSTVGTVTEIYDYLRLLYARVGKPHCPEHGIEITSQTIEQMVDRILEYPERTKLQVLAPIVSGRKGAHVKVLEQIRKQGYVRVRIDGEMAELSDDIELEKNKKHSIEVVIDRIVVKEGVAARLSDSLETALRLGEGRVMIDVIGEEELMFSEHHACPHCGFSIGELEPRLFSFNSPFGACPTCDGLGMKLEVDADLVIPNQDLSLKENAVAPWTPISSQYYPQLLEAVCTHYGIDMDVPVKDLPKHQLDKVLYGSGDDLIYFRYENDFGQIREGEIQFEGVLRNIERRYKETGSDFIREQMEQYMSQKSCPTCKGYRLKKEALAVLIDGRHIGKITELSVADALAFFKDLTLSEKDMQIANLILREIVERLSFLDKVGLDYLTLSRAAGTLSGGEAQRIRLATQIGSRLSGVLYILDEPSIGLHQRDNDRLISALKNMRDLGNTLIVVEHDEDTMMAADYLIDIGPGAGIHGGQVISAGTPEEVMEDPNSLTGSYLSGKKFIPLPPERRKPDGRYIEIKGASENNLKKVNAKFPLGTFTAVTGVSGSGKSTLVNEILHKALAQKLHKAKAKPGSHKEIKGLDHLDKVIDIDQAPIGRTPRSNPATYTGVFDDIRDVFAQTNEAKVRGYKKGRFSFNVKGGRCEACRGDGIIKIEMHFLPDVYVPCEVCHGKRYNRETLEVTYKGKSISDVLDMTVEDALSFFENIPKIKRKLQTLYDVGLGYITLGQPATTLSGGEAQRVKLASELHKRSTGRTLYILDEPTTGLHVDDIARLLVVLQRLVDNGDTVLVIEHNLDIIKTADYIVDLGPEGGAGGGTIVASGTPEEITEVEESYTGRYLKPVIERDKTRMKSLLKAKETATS

B1: Bacillus subtilis UvrB (wild type) (natural protein)
chain: MKDRFELVSKYQPQGDQPKAIEKLVKGIQEGKKHQTLLGATGTGKTFTVSNLIKEVNKPTLVIAHNKTLAGQLYSEFKEFFPNNAVEYFVSYYDYYQPEAYVPQTDTFIEKDASINDEIDKLRHSATSALFERRDVIIIASVSCIYGLGSPEEYREMVVSLRTEMEIERNELLRKLVDIQYARNDIDFQRGTFRVRGDVVEIFPASRDEHCVRVEFFGDEIERIREVDALTGEILGDRDHVAIFPASHFVTRAEKMEKAIQNIEKELEEQLKVMHENGKLLEAQRLEQRTRYDLEMMREMGFCSGIENYSRHLTLRPPGSTPYTLLDYFPDDFMIVVDESHVTIPQVRGMFNGDQARKQVLVDHGFRLPSALDNRPLRFEEFEKHMHNIVYVSATPGPYEIEHTDEMVEQIIRPTGLLDPLIDVRPIEGQIDDLIGEIQARIERNERVLVTTLTKKMSEDLTDYLKEIGIKVNYLHSEIKTLERIEIIRDLRLGKYDVLVGINLLREGLDIPEVSLVAILDADKEGFLRSERSLIQTIGRAARNAEGRVIMYADKITKSMEIAINETKRRREQQERFNEEHGITPKTINKEIRDVIRATVAAEDKAEYKTKAAPKLSKMTKKERQKVVEQMEHEMKEAAKALDFERAAELRDLLLELKAEG
With B1 the binding result (Bacillus subtilis UvrA) was “binds” and the “stoichiometry N” value (crystal structure) was 2.

B2: Bacillus subtilis UvrB T481C mutant (natural protein)
chain: MKDRFELVSKYQPQGDQPKAIEKLVKGIQEGKKHQTLLGATGTGKTFTVSNLIKEVNKPTLVIAHNKTLAGQLYSEFKEFFPNNAVEYFVSYYDYYQPEAYVPQTDTFIEKDASINDEIDKLRHSATSALFERRDVIIIASVSCIYGLGSPEEYREMVVSLRTEMEIERNELLRKLVDIQYARNDIDFQRGTFRVRGDVVEIFPASRDEHCVRVEFFGDEIERIREVDALTGEILGDRDHVAIFPASHFVTRAEKMEKAIQNIEKELEEQLKVMHENGKLLEAQRLEQRTRYDLEMMREMGFCSGIENYSRHLTLRPPGSTPYTLLDYFPDDFMIVVDESHVTIPQVRGMFNGDQARKQVLVDHGFRLPSALDNRPLRFEEFEKHMHNIVYVSATPGPYEIEHTDEMVEQIIRPTGLLDPLIDVRPIEGQIDDLIGEIQARIERNERVLVTTLTKKMSEDLTDYLKEIGIKVNYLHSEIKCLERIEIIRDLRLGKYDVLVGINLLREGLDIPEVSLVAILDADKEGFLRSERSLIQTIGRAARNAEGRVIMYADKITKSMEIAINETKRRREQQERFNEEHGITPKTINKEIRDVIRATVAAEDKAEYKTKAAPKLSKMTKKERQKVVEQMEHEMKEAAKALDFERAAELRDLLLELKAEG
B2: binds (cross-linking).

B3: Bacillus subtilis UvrB T481C mutant, spin labeled with PROXYL (natural protein)
chain: MKDRFELVSKYQPQGDQPKAIEKLVKGIQEGKKHQTLLGATGTGKTFTVSNLIKEVNKPTLVIAHNKTLAGQLYSEFKEFFPNNAVEYFVSYYDYYQPEAYVPQTDTFIEKDASINDEIDKLRHSATSALFERRDVIIIASVSCIYGLGSPEEYREMVVSLRTEMEIERNELLRKLVDIQYARNDIDFQRGTFRVRGDVVEIFPASRDEHCVRVEFFGDEIERIREVDALTGEILGDRDHVAIFPASHFVTRAEKMEKAIQNIEKELEEQLKVMHENGKLLEAQRLEQRTRYDLEMMREMGFCSGIENYSRHLTLRPPGSTPYTLLDYFPDDFMIVVDESHVTIPQVRGMFNGDQARKQVLVDHGFRLPSALDNRPLRFEEFEKHMHNIVYVSATPGPYEIEHTDEMVEQIIRPTGLLDPLIDVRPIEGQIDDLIGEIQARIERNERVLVTTLTKKMSEDLTDYLKEIGIKVNYLHSEIKCLERIEIIRDLRLGKYDVLVGINLLREGLDIPEVSLVAILDADKEGFLRSERSLIQTIGRAARNAEGRVIMYADKITKSMEIAINETKRRREQQERFNEEHGITPKTINKEIRDVIRATVAAEDKAEYKTKAAPKLSKMTKKERQKVVEQMEHEMKEAAKALDFERAAELRDLLLELKAEG
modifications: nitroxide spin label 3-(2-iodoacetamido)-proxyl (PROXYL) on C481
B3: binds (DEER).

TACTGTTT (ssDNA, T-fluorescein at position 6) [TACTG(TF6)TT 8-mer]: binds (UvrB wild type).
